Measurements from patent US20090325867A1, “RECEPTOR-SPECIFIC TUMOUR NECROSIS FACTOR-RELATED APOPTOSIS-INDUCING LIGAND (TRAIL) VARIANTS” (MEDICAL RESEARCH COUNCIL, priority 2005, published 2009).

Columns and labels:
[1] = target: TRAIL receptor 1 (TRAIL-R1) (Homo sapiens (Human)) (UniProt O00220)
[2] = target: TRAIL receptor 1 (TRAIL-R1) (Homo sapiens (Human)) (UniProt O00220); remark: listed apart in the source

% PS+ cells (apoptosis by phosphatidylserine externalization), Ramos cells, 4 h, 500 ng/ml [1] [% PS+ cells] | apoptosis of primary MCL cells without depsipeptide [2] [%] | apoptosis of primary MCL cells after depsipeptide (5 nM, 16 h) [2] [%] | Substance
41.8 | 25.5 |  | His-TRAIL (wild type, residues 95-281) (from UniProt P50591) (ligand)
 |  | 68.2 | HGS-ETR1 (antibody)
